Source: doi:10.1101/2021.12.29.474442, “Microtubule plus-end regulation by centriolar cap proteins” (bioRxiv, 2021)

What was measured:
[1] = biological target: T1, CPAP-CC1 (residues 89-196) (human, UniProt Q9HC77 89-196); test: cross-linking; zero-length cross-linker DMTMM (60 mM, 6 min, 25°C) followed by mass spectrometry (xQuest); conditions: both partners purified
T1 construct: CPAP (CENPJ), human, residues 89-196 (coiled-coil domain CC1); Cleaved with HRV 3C (PreScission site); also called CPAP 89-196; source: E. coli BL21(DE3), purified (Ni-NTA, tag cleavage, SEC); not shown: thioredoxin, N-terminal, cleaved; His6, N-terminal, cleaved
T1 sequence (looked up): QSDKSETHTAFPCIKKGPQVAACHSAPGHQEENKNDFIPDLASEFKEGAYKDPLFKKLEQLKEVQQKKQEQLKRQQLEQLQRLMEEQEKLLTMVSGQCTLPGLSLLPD

[2] = biological target: the molecule itself; test: SEC-MALS; 20°C, Superdex S75 or S200 10/30, 20 mM HEPES pH 7.5, 150 mM NaCl, 2 mM DTT; about 7 mg/ml loaded; proteins alone and equimolar (also 2:1, 3:1) mixtures
[3] = biological target: the molecule itself; test: single-molecule fluorescence intensity counting (TIRF); single molecules immobilised on coverslips in MRB80 buffer; intensity compared with purified GFP (monomers) and GFP-EB3 (dimers)

| Binder | binding result [1] | stoichiometry N [2] | stoichiometry N [3] |
| --- | --- | --- | --- |
| CP110-CC2 (residues 635-717) (domain or fragment, human, UniProt O43303-2 635-717, looked up, CP110, human, residues 635-717 (coiled-coil domain CC2); Homodimer alone by SEC-MALS; one chain of it stands in the heterodimer with CPAP-CC1; source: E. coli BL21(DE3), purified (Ni-NTA, tag cleavage, SEC); not shown: thioredoxin, N-terminal, cleaved; His6, N-terminal, cleaved) GTSSKESEELLKSKMLAFEEMRKRLEEQHAQQLSLLIAEQEREQERLQKEIEEQEKMLKEKKAMTAEASELDINNAVELEWRK | binds | 2 | – |
| CEP97^CP110-GFP-SII (chimera of CEP97 1-650 and CP110 581-991) (other, human, UniProt Q8IW35 1-650, looked up, CEP97, human, N-terminal amino acids 1-650; A dimer by single-molecule fluorescence intensity; No linker between the two parts is told. pTT5 based vector (Addgene #52355 is the vector); also called CEP97-CP110 chimera; CP110-CEP97 fusion) MAVARVDAALPPGEGSVVNWSGQGLQKLGPNLPCEADIHTLILDKNQIIKLENLEKCKRLIQLSVANNRLVRMMGVAKLTLLRVLNLPHNSIGCVEGLKELVHLEWLNLAGNNLKAMEQINSCTALQHLDLSDNNISQIGDLSKLVSLKTLLLHGNIITSLRMAPAYLPRSLAILSLAENEIRDLNEISFLASLTELEQLSIMNNPCVMATPSIPGFDYRPYIVSWCLNLRVLDGYVISQKESLKAEWLYSQGKGRAYRPGQHIQLVQYLATVCPLTSTLGLQTAEDAKLEKILSKQRFHQRQLMNQSQNEELSPLVPVETRASLIPEHSSPVQDCQISQESEPVIQVNSWVGINSNDDQLFAVKNNFPASVHTTRYSRNDLHLEDIQTDEDKLNCSLLSSESTFMPVASGLSPLSPTVELRLQGINLGLEDDGVADESVKGLESQVLDKEEEQPLWAANENSVQMMRSEINTEVNEKAGLLPCPEPTIISAILKDDNHSLTFFPESTEQKQSDIKKPENTQPENKETISQATSEKLPMILTQRSVALGQDKVALQKLNDAATKLQACWRGFYARNYNPQAKDVRYEIRLRRMQEHIVCLTDEIRRLRKERDEERIKKFVQEEAFRFLWNQVRSLQVWQQTVDQRLSSWHFEKVKRRLDLDIDGLQKENCPYVITSGITEQERQHLPEKRYPKGSGFVNKNKMLGTSSKESEELLKSKMLAFEEMRKRLEEQHAQQLSLLIAEQEREQERLQKEIEEQEKMLKEKKAMTAEASELDINNAVELEWRKISDSSLLETMLSQADSLHTSNSNSSGFTNSAMQYSFVSANEAPFYLWGSSTSGLTKLSVTRPFGRAKTRWSQVFSLEIQAKFNKITAVAKGFLTRRLMQTDKLKQLRQTVKDTMEFIRSFQSEAPLKRGIVSAQDASLQERVLAQLRAALYGIHDIFFVMDAAERMSILHHDREVRKEKMLRQMDKMKSPRVALSAATQKSLDRKKYMKAAEMGMPNKKFLVKQNPSETRVLQPNQGQNAPVHRLLSRQGSICRKNPKKAAKCCDNLRRQHSLG | – | – | 2 |
